Results on two substances are retold here after patent US20120171195A1.

The target in experiment [1] is HLA-Cw*0801 (human) (UniProt P10321). The experiment is described as follows: Luminex beads; MAb 1/400; PBS only.
The target in experiment [2] is HLA-Cw*1802 (human) (UniProt P10321). Nature of the experiment: Luminex beads; MAb 1/400; PBS only.
Experiment [3] addresses HLA-Cw*0302 (human) (UniProt P10321). Nature of the experiment: Luminex beads; MAb 1/400; PBS only.
The target in experiment [4] is HLA-B*1513 (human). Nature of the experiment: Luminex beads; MAb 1/1600; competitor rHLA-E.
Experiment [5] has as its target HLA-B*5101 (human). The experiment is described as follows: Luminex beads; MAb 1/1600; competitor rHLA-E.
Experiment [6] has as its target HLA-B*4002 (human) (UniProt P01889). The experiment is described as follows: Luminex beads; MAb 1/1600; competitor rHLA-E.
Experiment [7] addresses HLA-Cw*1402 (human) (UniProt P10321). The experiment is described as follows: Luminex beads; MAb 1/1600; competitor rHLA-E.
Experiment [8] addresses HLA-Cw*0702 (human) (UniProt P10321). Nature of the experiment: Luminex beads; MAb 1/1600; competitor rHLA-E.
For experiment [9], the target named is HLA-B*1401 (B64) (human) (UniProt P01889). Nature of the experiment: Luminex single-antigen beads; MEM-E/02 1/600; serum Mi59 1/100.
Experiment [10] has as its target HLA-B*5001 (B50) (human). The experiment is described as above.
Experiment [11] has as its target HLA-B*4801 (B48) (human) (UniProt P01889). The experiment is described as above.
The target in experiment [12] is HLA-A*3301 (A33) (human). The description is as above.
In experiment [13] the target is HLA-A*2403 (A24) (human). Described as above.
For experiment [14], the target named is HLA-A*2501 (A25) (human). The experiment is described as above.
The target of experiment [15] is HLA-A*2601 (A26) (human). The description is as above.
The target in experiment [16] is HLA-B*0801 (B8) (human) (UniProt P01889). Described as above.
The target of experiment [17] is HLA-B*5401 (B54) (human) (UniProt P01889). The experiment is described as above.
In experiment [18] the target is HLA-Cw*0304 (human). Described as above.
The target in experiment [19] is HLA-B*2708 (B27) (human) (UniProt P01889). Described as above.
In experiment [20] the target is HLA-B*1511 (B75) (human) (UniProt P01889). Described as above.
Experiment [21] addresses HLA-B*1513 (B77) (human). The description is as above.
The target of experiment [22] is HLA-Cw*0801 (Cw8) (human) (UniProt P10321). The experiment is described as above.
In experiment [23] the target is HLA-B*6701 (B67) (human) (UniProt P01889). The experiment is described as above.
In experiment [24] the target is HLA-B*4403 (B44) (human). Described as above.
Experiment [25] concerns the target HLA-A*2402 (A24) (human) (UniProt P04439). Described as above.
Experiment [26] has as its target HLA-B*4501 (B45) (human). The description is as above.
Experiment [27] deals with HLA-A*3201 (A32) (human). The description is as above.
In experiment [28] the target is HLA-B*1801 (B18) (human). Described as above.
Experiment [29] has as its target HLA-B*3801 (B38) (human). The description is as above.
For experiment [30], the target named is HLA-Cw*1802 (Cw18) (human) (UniProt P10321). Described as above.
For experiment [31], the target named is HLA-B*5301 (B53) (human). The experiment is described as above.
In experiment [32] the target is HLA-B*1301 (B13) (human). The description is as above.
Experiment [33] has as its target HLA-Cw*1701 (Cw17) (human). The description is as above.
In experiment [34] the target is HLA-B*3901 (B39) (human) (UniProt P01889). The experiment is described as above.
Experiment [35] addresses HLA-A*3002 (A30) (human) (UniProt P04439). The experiment is described as above.
Experiment [36] has as its target HLA-Cw*1203 (Cw12) (human) (UniProt P10321). Described as above.
Experiment [37] deals with HLA-A*2901 (A29) (human) (UniProt P04439). The experiment is described as above.
Experiment [38] deals with HLA-Cw*0401 (Cw4) (human). Described as above.

Take “murine monoclonal antibody (MAb) MEM-E/02”: the MFI in [1] was 3340 MFI; in [2], 7040 MFI; in experiment [3], 1360 MFI; in experiment [4], 246 MFI; in [5] it was 99 MFI; in [6], 196 MFI. The values for the MFI in [7] and in experiment [8] were 48 MFI and 88 MFI, respectively.
Turning to murine monoclonal antibody MAb MEM-E/02, the MFI in experiment [9], in experiment [10], in experiment [11], in experiment [12], in experiment [13] and in experiment [14] was below 500 MFI each time. The MFI is below 500 MFI in experiment [15]; below 500 MFI in experiment [16]; below 500 MFI in experiment [17]; 557 MFI in [18]; below 500 MFI in experiment [19]; below 500 MFI in [20]. Besides, the MFI in experiment [21], in experiment [22], in [23], in experiment [24], in experiment [25] and in experiment [26] was below 500 MFI each time. Further, the MFI was below 500 MFI in experiment [27]; below 500 MFI in [28]; below 500 MFI in experiment [29]; 1080 MFI in experiment [30]; below 500 MFI in experiment [31]; below 500 MFI in experiment [32]. Also, the MFI was below 500 MFI in [33]; below 500 MFI in experiment [34]; below 500 MFI in experiment [35]; below 500 MFI in experiment [36]; below 500 MFI in [37]; 4590 MFI in [38].
